Test results: the supplement of paper PMC10724198
± gives the standard deviation of the averaged measurements.
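Note: PSI is a weighted mean of sequencing reads over stability bins, variants kept only with over 10 reads, mCherry proximal and sfGFP distal, peptide attached via GGGS linker.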

The sequences below were run on Saccharomyces cerevisiae (assay: protein stability index of tFT-peptide fusion (C-terminal peptide) (PSI (0-1 scale)); higher = more stable (slower turnover)). Conditions: genetic background: wild type; temperature: 30 C.
With GWGCGGGGAWSG the protein stability index was 0.767 ± 0.018.
ECYLYGSMDGFI gave a protein stability index of 0.588 ± 0.036.
For KEWLSRDIEDAS, the protein stability index was 0.665 ± 0.027.
SEGCPILALVKP was tested, and the protein stability index was 0.638 ± 0.035.
PFSVQLPDVDCL was tested, and the protein stability index was 0.715 ± 0.16.
In the case of CGGGGVVGAGWG, the protein stability index is reported as 0.728 ± 0.061.
GGGPWGRVGRGG gave a protein stability index of 0.679 ± 0.037.
Work on DRPPYTPHPPYP yielded a protein stability index of 0.7521 ± 0.0073.
In the case of PLPPLPLAPSLP, the protein stability index is reported as 0.708 ± 0.065.
Work on SPPPLPPPLSRP yielded a protein stability index of 0.638 ± 0.067.
Sequence EGRCPAMRGAFG has a protein stability index of 0.6797 ± 0.0041.
PATPPFSLPPPH gave a protein stability index of 0.669 ± 0.025.
RGASLFPTPLAF gave a protein stability index of 0.742 ± 0.043.
LPLIPTSSRRHS showed a protein stability index of 0.682 ± 0.024.
KSARSYSMEGEI gave a protein stability index of 0.673 ± 0.016.
RSGGGVARRSYR was tested, and the protein stability index was 0.662 ± 0.013.
GSGWRLLLGLVR showed a protein stability index of 0.5731 ± 0.0022.
Sequence SVRGWMILCTGM has a protein stability index of 0.562 ± 0.049.
For ILRLVGRGLVLL, the protein stability index was 0.639 ± 0.013.
Sequence RDECLRVLAPLR has a protein stability index of 0.726 ± 0.024.
With LLAYFCRRGVRH the protein stability index was 0.7232 ± 0.0071.
CTRRACDVRAVL gave a protein stability index of 0.699 ± 0.025.
For RFLISYFYKVIR, the protein stability index was 0.56 ± 0.034.
For RAREFRSRNIGD, the protein stability index was 0.74 ± 0.0058.
ALVLYVSMSRGY gave a protein stability index of 0.677 ± 0.054.
With CEYRRLVISVFD the protein stability index was 0.547 ± 0.028.
PRTPRPPSPPAS showed a protein stability index of 0.739 ± 0.015.
GPGLSPPYPSPA showed a protein stability index of 0.704 ± 0.029.
PQTPANDDGDPN showed a protein stability index of 0.642 ± 0.041.
With GARSRLFRWWVA the protein stability index was 0.601 ± 0.012.
With LFLLYPRLTLPL the protein stability index was 0.621 ± 0.023.
AGGARADKQGGG showed a protein stability index of 0.636 ± 0.071.
PLRVPPPPCSRS gave a protein stability index of 0.722 ± 0.1.
Sequence PHNRSNSWPNPR has a protein stability index of 0.714 ± 0.054.
With KNEIRLKEDIRC the protein stability index was 0.718 ± 0.017.
SVPPRPLALSLL showed a protein stability index of 0.76 ± 0.026.
Work on LPSARLPPPPPR yielded a protein stability index of 0.683 ± 0.021.
AVSSGPGSCSNP showed a protein stability index of 0.668 ± 0.013.
SISPWFFFFLDW was tested, and the protein stability index was 0.579 ± 0.014.
PAPPSLAAPRGT gave a protein stability index of 0.663 ± 0.0092.
AVGMGCLSFFVV gave a protein stability index of 0.553 ± 0.056.
PPPRTTPYPSSL showed a protein stability index of 0.714 ± 0.055.
With AGMATWGILVSL the protein stability index was 0.52 ± 0.008.
In the case of ASGKRSGPNPCR, the protein stability index is reported as 0.72 ± 0.022.
With MVVEGLERWGRV the protein stability index was 0.723 ± 0.045.
WARVESFTSKTQ gave a protein stability index of 0.6028 ± 0.0045.
Work on VGWRVAVGWGLG yielded a protein stability index of 0.691 ± 0.083.
For STPLRNLEITIA, the protein stability index was 0.679 ± 0.15.
Sequence PPPSPLANPPSP has a protein stability index of 0.728 ± 0.092.
With DREKRKSGGERR the protein stability index was 0.647 ± 0.039.
PLAPPPPSSPPV gave a protein stability index of 0.675 ± 0.083.
VFVGLFCVLGRV gave a protein stability index of 0.523 ± 0.0079.
Sequence GIKAIEKGDIHL has a protein stability index of 0.699 ± 0.021.
Work on WEGAGGGFGLVV yielded a protein stability index of 0.712 ± 0.05.
PPCVSGHPLRYS was tested, and the protein stability index was 0.727 ± 0.045.
With GERWSGVGEWVW the protein stability index was 0.739 ± 0.014.
In the case of KRYRKGGRPMRA, the protein stability index is reported as 0.66 ± 0.06.
In the case of RRGEVTQTCGCE, the protein stability index is reported as 0.549 ± 0.054.
WIPSYMRFCALT showed a protein stability index of 0.788 ± 0.098.
DLAIPPPRPRFF was tested, and the protein stability index was 0.701 ± 0.013.
Work on RFRCGLPMQERT yielded a protein stability index of 0.689 ± 0.064.
With RCSYIGSAGSFF the protein stability index was 0.732 ± 0.024.
With LVLFFPMLRIRI the protein stability index was 0.515 ± 0.041.
SRRSKDRAGVWV showed a protein stability index of 0.642 ± 0.0079.
For EHLQTHYLWSTG, the protein stability index was 0.701 ± 0.062.
Sequence SRFISTLPGLLA has a protein stability index of 0.708 ± 0.035.
Work on EEAGETAGGRRE yielded a protein stability index of 0.648 ± 0.093.
Sequence RFLDVSRYAGGV has a protein stability index of 0.705 ± 0.025.
Work on VQYGHIVKGWCS yielded a protein stability index of 0.697 ± 0.013.
PEPMYHNSLFRP gave a protein stability index of 0.737 ± 0.018.
HTANYILPLIHI showed a protein stability index of 0.635 ± 0.044.
Sequence RPLSPPRPPPPS has a protein stability index of 0.678 ± 0.014.
Work on APPPRSPPPPPL yielded a protein stability index of 0.6796 ± 0.0067.
